# Experimental data taken from patent US10221217.
# How the values were obtained:
# [1] = molecular target: c1d1_b10disulf displayed on yeast (S. cerevisiae); assay: Fab titration on yeast-displayed construct, flow cytometry
# [2] = molecular target: c1d1_N386D displayed on yeast (S. cerevisiae); assay: as above
# [3] = molecular target: c1d1_v2 displayed on yeast (S. cerevisiae); assay: as above
# [4] = molecular target: c1d1_N386D; assay: SPR and ITC
# [5] = molecular target: eOD_N276D; assay: method not stated
# [6] = molecular target: eOD_T257S_L260F_S375W; assay: method not stated
# [7] = molecular target: eOD_L260F; assay: method not stated
# [8] = molecular target: eOD_T257S_S375W (HIV-1 HxB2 (engineered)); assay: method not stated
# [9] = molecular target: eOD_L260F_N276D; assay: method not stated
# [10] = molecular target: eOD_VD(-)_g4; assay: Kd, method not stated; construct from 293 cells
# [11] = molecular target: eOD_VD(-)_g6; assay: Kd, method not stated; construct from 293 cells
# [12] = molecular target: eOD_VD(-)_g2; assay: Kd, method not stated; construct from 293 cells
# [13] = molecular target: eOD_VD(-)_g7; assay: Kd, method not stated; construct from 293 cells
# [14] = molecular target: eOD_VD(-)_g8; assay: Kd, method not stated; construct from 293 cells
# [15] = molecular target: eOD_VD(-)_g5; assay: Kd, method not stated; construct from 293 cells
# [16] = molecular target: eOD_VD(-)_g3; assay: Kd, method not stated; construct from 293 cells
# [17] = molecular target: c1d1_v2; assay: SPR, IgG captured by anti-human IgG, construct as analyte
# [18] = molecular target: wild-type core GP120 (Human immunodeficiency virus type 1 group M subtype B (isolate HXB2) (HIV-1)) (UniProt P04578); assay: as above
# [19] = molecular target: c1d1_N386D; assay: as above
# [20] = molecular target: c2d1_b10disulf; assay: as above
# [21] = molecular target: c1d1_minglyc; assay: as above
# [22] = molecular target: ODml(N386) (Human immunodeficiency virus type 1 group M subtype B (isolate HXB2) (HIV-1)) (UniProt P04578); assay: as above
# [23] = molecular target: eOD_N276D_N463D; assay: method not stated; protein from 293 cells
# [24] = molecular target: eOD_VH1-2_v6.0 (HIV-1 HxB2 (engineered)); assay: SPR, IgG captured by anti-human IgG, eOD as analyte, 1:1 fit with mass transport
# [25] = molecular target: ODml(N386) (Human immunodeficiency virus type 1 group M subtype B (isolate HXB2) (HIV-1)) (UniProt P04578); assay: SPR (value differs from Table 1)
# [26] = molecular target: c1d1_v2; assay: ITC
# [27] = molecular target: c1d1_N386D; assay: ITC
# [28] = molecular target: c1d1_b10disulf; assay: ITC
# [29] = molecular target: eOD_VH1-2_v6.0 (HIV-1 HxB2 (engineered)); assay: dissociation constant, SPR (FIG. 3)
# [30] = molecular target: c1d1_N386D; assay: method not given
# [31] = molecular target: c1d1_N386D; assay: ITC, b12 IgG
# [32] = molecular target: OD(D386) (Human immunodeficiency virus type 1 group M subtype B (isolate HXB2) (HIV-1)) (UniProt P04578); assay: SPR, IgG captured by anti-human IgG, construct as analyte
# [33] = molecular target: c1d1_b2021; assay: as above
# [34] = molecular target: ODml(D386) (Human immunodeficiency virus type 1 group M subtype B (isolate HXB2) (HIV-1)) (UniProt P04578); assay: as above
# [35] = molecular target: ODml(d1_disulf) (Human immunodeficiency virus type 1 group M subtype B (isolate HXB2) (HIV-1)) (UniProt P04578); assay: as above
# [36] = molecular target: c1d1_b10disulf; assay: as above
# [37] = molecular target: c1d1_b2021; assay: SPR
# [38] = molecular target: ODml(D386) (Human immunodeficiency virus type 1 group M subtype B (isolate HXB2) (HIV-1)) (UniProt P04578); assay: SPR
# [39] = molecular target: c1d1_v2; assay: SPR
# [40] = molecular target: c1d1_N386D; assay: SPR
# [41] = molecular target: ODml(d1_disulf) (Human immunodeficiency virus type 1 group M subtype B (isolate HXB2) (HIV-1)) (UniProt P04578); assay: SPR
# [42] = molecular target: c1d1_minglyc; assay: SPR
# [43] = molecular target: eOD_VH1-2_v6.0 (HIV-1 HxB2 (engineered)); assay: dissociation constant, method not stated
# [44] = molecular target: eOD_VH1-2_v4.0 (HIV-1 HxB2 (engineered)); assay: method not stated
# [45] = molecular target: eOD_N276D_N463D; assay: method not stated
# [46] = molecular target: eOD_VH1-2_v6.0 (HIV-1 HxB2 (engineered)); assay: dissociation constant, SPR (FIG. 2)
# [47] = molecular target: eOD_VH1-2_v6.0 (HIV-1 HxB2 (engineered)); assay: SPR, IgG captured by anti-human IgG, eOD as analyte, 1:1 kinetic fit
# [48] = molecular target: eOD_VH1-2_v1.0 (HIV-1 HxB2 (engineered)); assay: SPR
# [49] = molecular target: core_gp120_VH1-2_v2.0 (HIV-1 BaL (engineered)); assay: SPR
substance,measurement,setting,value
VRC01 Fab,Kd,[1],> 50 nM
same,Kd,[2],> 50 nM
same,Kd,[3],> 50 nM
VRC01 IgG (mature) (antibody),fold weaker KD than core gp120,[4],35 to 50 fold
same,Kd,[5],27.8 nM
same,Kd,[6],8.6 nM
same,Kd,[7],14.3 nM
same,Kd,[8],90 nM
same,Kd,[9],11.9 nM
same,Kd,[10],7.3 nM
same,Kd,[11],4.6 nM
same,Kd,[12],7 nM
same,Kd,[13],109 nM
same,Kd,[14],2.8 nM
same,Kd,[15],15 nM
same,Kd,[16],4.7 nM
same,Kd,[17],249 nM
same,Kd,[18],3.9 nM
same,Kd,[19],139 nM
same,Kd,[20],289 nM
same,Kd,[21],7.5 nM
same,Kd,[22],298 nM
same,Kd,[23],4 nM
same,Kd,[24],1.7 nM
same,koff,[24],0.000251 s⁻¹
same,kon,[24],148000 M⁻¹ s⁻¹
same,Kd,[25],530 nM
same,Kd,[26],100 nM
same,Kd,[27],200 nM
same,Kd,[28],100 nM
same,fold improvement of KD over c1d1 N386D,[28],2 fold
same,Kd,[29],1.7 nM
same,Kd,[30],80 nM
same,fold weaker affinity than core gp120,[30],> 10 fold
b12 Fab,Kd,[2],21 nM
same,Kd,[3],11 nM
b12 IgG (antibody),Kd,[10],76 nM
same,Kd,[11],514 nM
same,Kd,[12],96 nM
same,Kd,[13],421 nM
same,Kd,[14],7 nM
same,Kd,[15],132 nM
same,Kd,[16],21.6 nM
same,Kd,[31],65 nM
same,Kd,[32],1600 nM
same,Kd,[33],120 nM
same,Kd,[34],530 nM
same,Kd,[17],30 nM
same,Kd,[18],4.5 nM
same,Kd,[19],59 nM
same,Kd,[35],175 nM
same,Kd,[20],148 nM
same,Kd,[21],31 nM
same,Kd,[36],200 nM
same,Kd,[22],1900 nM
same,Kd,[37],148 nM
same,fold weaker KD than c1d1 N386D,[37],2.5 fold
same,fold improvement of KD over OD(D386),[38],3 fold
same,fold improvement of KD over c1d1 N386D,[39],2 fold
same,fold improvement of KD over c1d1 b10disulf,[39],8 fold
same,fold improvement of KD over OD(386),[40],28 fold
same,fold improvement of KD over ODml,[40],9 fold
same,fold improvement of KD over OD(D386),[41],9 fold
same,fold improvement of KD over ODml,[41],3 fold
same,fold improvement of KD over c1d1 N386D,[42],2 fold
germline NIH45-46 (antibody),Kd,[43],408 nM
germline VRC01 (antibody),Kd,[44],100 nM
same,Kd,[5],640000 nM
same,Kd,[7],> 500000 nM
same,Kd,[45],380000 nM
same,Kd,[9],149000 nM
same,Kd,[46],44 nM
same,Kd,[47],43.6 nM
same,koff,[47],0.000683 s⁻¹
same,kon,[47],15700 M⁻¹ s⁻¹
same,Kd,[48],40000 nM
same,Kd,[49],1600 nM
mature NIH45-46 (antibody),Kd,[43],3.8 nM
